# In patent US20140087995A1 (published 2014):
# Numbered stars: 1 amine (or outer) side, 2 acyl side, 3 side chain; on linkers, the order of the positions; unused ones are H or OH. Bridge positions count the residues as written; N and C are the ends. Side chains are listed from the residue outwards. Ends that are not written are not given here. * marks the point of attachment. C20 diacid = O=C(O)CCCCCCCCCCCCCCCCCCC(=O)*; γGlu = O=C(O)[C@H](CCC(=O)[*:2])N[*:1]; AEEA = NCCOCCOCC(=O)O
# B1: N^ε1-[2-[2-[2-[[2-[2-[2-[[(4S)-4-carboxy-4-(19-carboxynonadecanoylamino)butanoyl]amino]ethoxy]ethoxy]acetyl]amino]ethoxy]ethoxy]acetyl]-[Arg17,Pro21,Pro27,Arg34 … (peptide)
# peptide: K([AEEA-AEEA-γGlu-C20 diacid])CNTATCATQRLANFLRHSSPNFGAIPSSTNVGRNTY-NH2
# modifications: disulfide 2-7; N-terminus assumed
# SMILES: CC[C@H](C)[C@H](NC(=O)[C@H](C)NC(=O)CNC(=O)[C@H](Cc1ccccc1)NC(=O)[C@H](CC(N)=O)NC(=O)[C@@H]1CCCN1C(=O)[C@H](CO)NC(=O)[C@H](CO)NC(=O)[C@H](Cc1c[nH]cn1)NC(=O)[C@H](CCCNC(=N)N)NC(=O)[C@H](CC(C)C)NC(=O)[C@H](Cc1ccccc1)NC(=O)[C@H](CC(N)=O)NC(=O)[C@H](C)NC(=O)[C@H](CC(C)C)NC(=O)[C@H](CCCNC(=N)N)NC(=O)[C@H](CCC(N)=O)NC(=O)[C@@H](NC(=O)[C@H](C)NC(=O)[C@@H]1CSSC[C@H](NC(=O)[C@@H](N)CCCCNC(=O)COCCOCCNC(=O)COCCOCCNC(=O)CC[C@H](NC(=O)CCCCCCCCCCCCCCCCCCC(=O)O)C(=O)O)C(=O)N[C@@H](CC(N)=O)C(=O)N[C@@H]([C@@H](C)O)C(=O)N[C@@H](C)C(=O)N[C@@H]([C@@H](C)O)C(=O)N1)[C@@H](C)O)C(=O)N1CCC[C@H]1C(=O)N[C@@H](CO)C(=O)N[C@@H](CO)C(=O)N[C@H](C(=O)N[C@@H](CC(N)=O)C(=O)N[C@H](C(=O)NCC(=O)N[C@@H](CCCNC(=N)N)C(=O)N[C@@H](CC(N)=O)C(=O)N[C@H](C(=O)N[C@@H](Cc1ccc(O)cc1)C(N)=O)[C@@H](C)O)C(C)C)[C@@H](C)O
# notes: also called compound 95
# B2: N^ε1-[2-[2-[2-(19-carboxynonadecanoylamino)ethoxy]ethoxy]acetyl]-[His14,Arg17,Pro21,Pro27]-h-amylin (peptide)
# peptide: K([AEEA-C20 diacid])CNTATCATQRLAHFLRHSSPNFGAIPSSTNVGSNTY-NH2
# modifications: disulfide 2-7; N-terminus assumed
# SMILES: CC[C@H](C)[C@H](NC(=O)[C@H](C)NC(=O)CNC(=O)[C@H](Cc1ccccc1)NC(=O)[C@H](CC(N)=O)NC(=O)[C@@H]1CCCN1C(=O)[C@H](CO)NC(=O)[C@H](CO)NC(=O)[C@H](Cc1c[nH]cn1)NC(=O)[C@H](CCCNC(=N)N)NC(=O)[C@H](CC(C)C)NC(=O)[C@H](Cc1ccccc1)NC(=O)[C@H](Cc1c[nH]cn1)NC(=O)[C@H](C)NC(=O)[C@H](CC(C)C)NC(=O)[C@H](CCCNC(=N)N)NC(=O)[C@H](CCC(N)=O)NC(=O)[C@@H](NC(=O)[C@H](C)NC(=O)[C@@H]1CSSC[C@H](NC(=O)[C@@H](N)CCCCNC(=O)COCCOCCNC(=O)CCCCCCCCCCCCCCCCCCC(=O)O)C(=O)N[C@@H](CC(N)=O)C(=O)N[C@@H]([C@@H](C)O)C(=O)N[C@@H](C)C(=O)N[C@@H]([C@@H](C)O)C(=O)N1)[C@@H](C)O)C(=O)N1CCC[C@H]1C(=O)N[C@@H](CO)C(=O)N[C@@H](CO)C(=O)N[C@H](C(=O)N[C@@H](CC(N)=O)C(=O)N[C@H](C(=O)NCC(=O)N[C@@H](CO)C(=O)N[C@@H](CC(N)=O)C(=O)N[C@H](C(=O)N[C@@H](Cc1ccc(O)cc1)C(N)=O)[C@@H](C)O)C(C)C)[C@@H](C)O
# notes: Analogue of human amylin; also called compound 90
# B3: N^ε1-[(4S)-4-carboxy-4-[[(4S)-4-carboxy-4-(19-carboxynonadecanoylamino)butanoyl]amino]butanoyl]-[His14,Arg17,Pro21,Pro27]-h-amylin (peptide)
# peptide: K([γGlu-γGlu-C20 diacid])CNTATCATQRLAHFLRHSSPNFGAIPSSTNVGSNTY-NH2
# modifications: disulfide 2-7; N-terminus assumed
# SMILES: CC[C@H](C)[C@H](NC(=O)[C@H](C)NC(=O)CNC(=O)[C@H](Cc1ccccc1)NC(=O)[C@H](CC(N)=O)NC(=O)[C@@H]1CCCN1C(=O)[C@H](CO)NC(=O)[C@H](CO)NC(=O)[C@H](Cc1c[nH]cn1)NC(=O)[C@H](CCCNC(=N)N)NC(=O)[C@H](CC(C)C)NC(=O)[C@H](Cc1ccccc1)NC(=O)[C@H](Cc1c[nH]cn1)NC(=O)[C@H](C)NC(=O)[C@H](CC(C)C)NC(=O)[C@H](CCCNC(=N)N)NC(=O)[C@H](CCC(N)=O)NC(=O)[C@@H](NC(=O)[C@H](C)NC(=O)[C@@H]1CSSC[C@H](NC(=O)[C@@H](N)CCCCNC(=O)CC[C@H](NC(=O)CC[C@H](NC(=O)CCCCCCCCCCCCCCCCCCC(=O)O)C(=O)O)C(=O)O)C(=O)N[C@@H](CC(N)=O)C(=O)N[C@@H]([C@@H](C)O)C(=O)N[C@@H](C)C(=O)N[C@@H]([C@@H](C)O)C(=O)N1)[C@@H](C)O)C(=O)N1CCC[C@H]1C(=O)N[C@@H](CO)C(=O)N[C@@H](CO)C(=O)N[C@H](C(=O)N[C@@H](CC(N)=O)C(=O)N[C@H](C(=O)NCC(=O)N[C@@H](CO)C(=O)N[C@@H](CC(N)=O)C(=O)N[C@H](C(=O)N[C@@H](Cc1ccc(O)cc1)C(N)=O)[C@@H](C)O)C(C)C)[C@@H](C)O
# notes: Analogue of human amylin; also called compound 92
# Columns and labels:
# [1] = biological target: T1, human calcitonin receptor (human, UniProt P30988 25-474); experiment: cell-based or functional assay
# T1 sequence (looked up): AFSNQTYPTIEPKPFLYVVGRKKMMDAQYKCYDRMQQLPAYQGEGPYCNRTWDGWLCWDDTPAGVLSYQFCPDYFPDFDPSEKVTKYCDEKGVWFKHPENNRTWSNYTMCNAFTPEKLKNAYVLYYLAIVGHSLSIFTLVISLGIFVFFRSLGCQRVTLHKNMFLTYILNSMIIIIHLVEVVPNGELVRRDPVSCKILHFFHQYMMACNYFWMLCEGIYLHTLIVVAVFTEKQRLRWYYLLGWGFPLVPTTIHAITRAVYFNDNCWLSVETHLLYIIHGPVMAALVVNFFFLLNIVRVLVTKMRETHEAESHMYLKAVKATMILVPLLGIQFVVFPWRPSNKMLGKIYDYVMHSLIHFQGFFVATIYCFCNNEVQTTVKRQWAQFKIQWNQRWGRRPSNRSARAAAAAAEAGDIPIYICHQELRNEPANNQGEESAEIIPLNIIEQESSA
# [2] = biological target: T2, rat calcitonin receptor (rat, UniProt P32214 25-516); experiment: ratio of binding IC50s: rat calcitonin receptor / rat amylin receptor (reference)
# T2 construct: whole, on cells; Membranes prepared from transiently transfected BHK tk'ts 13 cells (Assay VIII); also called rCTR; rCT
# T2 sequence (looked up): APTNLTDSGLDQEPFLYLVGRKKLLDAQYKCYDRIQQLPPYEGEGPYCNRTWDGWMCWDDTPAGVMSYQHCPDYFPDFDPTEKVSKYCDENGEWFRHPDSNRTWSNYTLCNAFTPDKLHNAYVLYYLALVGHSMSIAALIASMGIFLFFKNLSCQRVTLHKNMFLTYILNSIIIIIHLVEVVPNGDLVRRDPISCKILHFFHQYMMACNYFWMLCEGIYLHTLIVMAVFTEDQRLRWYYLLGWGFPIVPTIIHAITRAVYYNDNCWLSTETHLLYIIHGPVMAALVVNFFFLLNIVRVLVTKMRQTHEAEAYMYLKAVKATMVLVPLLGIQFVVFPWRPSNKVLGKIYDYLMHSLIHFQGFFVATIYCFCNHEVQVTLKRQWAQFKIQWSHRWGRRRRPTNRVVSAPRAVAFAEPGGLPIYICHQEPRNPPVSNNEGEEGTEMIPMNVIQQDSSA
# [3] = biological target: T3, human calcitonin receptor (human, UniProt P30988 25-474); experiment: ratio of binding IC50s: human calcitonin receptor / human amylin receptor (reference)
# T3 construct: whole, on cells; Membranes prepared from a stably transfected BHK cell line (Assay VII); also called hCTR; hCT
# T3 sequence (looked up): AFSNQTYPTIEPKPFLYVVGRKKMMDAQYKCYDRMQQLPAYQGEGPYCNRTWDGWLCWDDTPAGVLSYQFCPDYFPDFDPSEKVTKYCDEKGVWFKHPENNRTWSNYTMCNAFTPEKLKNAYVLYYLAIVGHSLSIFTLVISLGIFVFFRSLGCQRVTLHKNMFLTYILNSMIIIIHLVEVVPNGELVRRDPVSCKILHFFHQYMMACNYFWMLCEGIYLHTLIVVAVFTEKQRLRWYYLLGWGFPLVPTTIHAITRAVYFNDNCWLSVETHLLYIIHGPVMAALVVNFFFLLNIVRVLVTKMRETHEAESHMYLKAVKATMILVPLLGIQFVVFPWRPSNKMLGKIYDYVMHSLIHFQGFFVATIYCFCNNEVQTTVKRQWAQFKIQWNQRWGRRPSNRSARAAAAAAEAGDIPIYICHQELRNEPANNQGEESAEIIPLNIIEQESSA
# In short: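 Competition binding by SPA with cell membranes (35 ng/μL) and SPA beads in 50 mM Hepes pH 7.4 with 1 mM CaCl2, 5 mM MgCl2, 0.1% OA and 0.02% Tween20. Incubated 120 min at 25 °C with shaking, then counted.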
# [4] = biological target: T2, rat calcitonin receptor; experiment: SPA competition vs 125I-calcitonin, membranes of BHK cells with rat calcitonin receptor (Assay VIII)
# [5] = biological target: T4, rat amylin receptor (rat calcitonin receptor + rat RAMP 3) (rat, UniProt P32214 25-516; Q9JJ73 23-147); experiment: SPA competition vs 125I-rat amylin, membranes of BHK cells with rat calcitonin receptor + rat RAMP3 (Assay VI)
# T4 construct: whole, on cells; Membranes prepared from transiently transfected BHK tk'ts 13 cells (Assay VI); also called rAmylin-R; rAmylin
# T4 sequence (looked up) 1: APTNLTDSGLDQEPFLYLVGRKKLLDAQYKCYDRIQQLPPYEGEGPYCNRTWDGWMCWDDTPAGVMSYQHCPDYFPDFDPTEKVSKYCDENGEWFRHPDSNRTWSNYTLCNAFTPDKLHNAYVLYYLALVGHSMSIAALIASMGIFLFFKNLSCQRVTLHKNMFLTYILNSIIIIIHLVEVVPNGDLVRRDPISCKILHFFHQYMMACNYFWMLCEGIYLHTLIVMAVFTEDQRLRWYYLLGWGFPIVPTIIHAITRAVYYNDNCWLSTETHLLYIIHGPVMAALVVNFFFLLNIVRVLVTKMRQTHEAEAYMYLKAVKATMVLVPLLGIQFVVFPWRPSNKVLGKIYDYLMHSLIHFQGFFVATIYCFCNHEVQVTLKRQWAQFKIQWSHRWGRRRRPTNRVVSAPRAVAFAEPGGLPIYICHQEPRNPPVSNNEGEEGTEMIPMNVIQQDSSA
# T4 sequence (looked up) 2: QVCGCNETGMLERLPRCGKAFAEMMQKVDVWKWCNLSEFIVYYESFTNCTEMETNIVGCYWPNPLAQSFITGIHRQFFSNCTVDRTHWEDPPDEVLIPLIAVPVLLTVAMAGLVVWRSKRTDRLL
Binder,hCTR funct. EC50 [1],Ratio rCT/rAmylin binding [2],Ratio hCT/hAmylin binding [3],IC50 [4],IC50 [5]
B1,21.5 nM,–,–,–,–
B2,–,74.1,42.2,18.2 nM,0.246 nM
B3,–,156,145,104 nM,0.668 nM
